# Experiments:
# PcrA [1] = biological target: T1, PcrA (Geobacillus stearothermophilus, UniProt P56255); assay: stopped-flow fluorescence, koff/kon; type: binding
# T1 construct: recombinant, prepared as described previously
# T1 sequence (P56255 1-724): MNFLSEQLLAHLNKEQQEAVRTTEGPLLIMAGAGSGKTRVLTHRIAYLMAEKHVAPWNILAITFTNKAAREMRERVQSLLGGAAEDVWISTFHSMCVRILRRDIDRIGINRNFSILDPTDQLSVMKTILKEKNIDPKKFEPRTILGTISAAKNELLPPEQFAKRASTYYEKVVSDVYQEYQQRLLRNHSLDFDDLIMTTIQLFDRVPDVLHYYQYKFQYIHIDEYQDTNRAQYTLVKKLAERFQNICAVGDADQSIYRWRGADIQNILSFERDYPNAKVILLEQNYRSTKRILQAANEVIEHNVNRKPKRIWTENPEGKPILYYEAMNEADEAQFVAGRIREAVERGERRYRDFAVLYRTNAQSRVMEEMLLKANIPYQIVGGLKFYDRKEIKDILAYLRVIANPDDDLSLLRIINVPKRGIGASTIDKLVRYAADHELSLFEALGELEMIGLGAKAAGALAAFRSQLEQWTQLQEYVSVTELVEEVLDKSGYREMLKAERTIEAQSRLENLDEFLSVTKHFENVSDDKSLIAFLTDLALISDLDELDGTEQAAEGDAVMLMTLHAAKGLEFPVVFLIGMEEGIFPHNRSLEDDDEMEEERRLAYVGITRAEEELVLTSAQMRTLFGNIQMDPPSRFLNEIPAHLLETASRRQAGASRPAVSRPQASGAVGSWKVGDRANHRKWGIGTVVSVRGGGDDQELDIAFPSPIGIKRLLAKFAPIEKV
# PcrA [2] = biological target: T1, PcrA; assay: stopped-flow fluorescence, quench-flow HPLC, Pi release, single turnover; type: biochemical; conditions: 8 μM PcrA, 10 μM dT20, 2 μM deac-aminoATP; 3 mM MgCl2, pH 7.5; labelled compound
# [3] = substrate: CNc1ccccc1C(=O)O[C@H]1C[C@H](n2cnc3c(N)ncnc32)O[C@@H]1COP(=O)(O)OP(=O)(O)OP(=O)(O)O; assay: steady-state ATPase, MDCC-PBP phosphate release; type: biochemical, Deinococcus radiodurans; conditions: with 500 nM dT20 ssDNA, 10 mM MgCl2, pH 7.5, 20 °C
# Description: (§1) steady-state ATPase, MDCC-PBP phosphate release on RecD2
# [4] = substrate: Nc1ncnc2c1ncn2[C@@H]1O[C@H](COP(=O)(O)OP(=O)(O)OP(=O)(O)O)[C@@H](O)[C@H]1O; assay: steady-state ATPase, MDCC-PBP phosphate release; type: biochemical, Deinococcus radiodurans; conditions: with 500 nM dT20 ssDNA, 10 mM MgCl2, pH 7.5, 20 °C
# Description: as §1
molecule,measurement,setting,value
CCN(CC)c1ccc2cc(C(=O)N[C@H]3[C@@H](O)[C@H](n4cnc5c(N)ncnc54)O[C@@H]3COP(=O)(O)OP(=O)(O)O)c(=O)oc2c1 [deac-aminoADP],Kd,PcrA [1],1.7 µM
"CCN(CC)c1ccc2cc(C(=O)N[C@H]3[C@@H](O)[C@H](n4cnc5c(N)ncnc54)O[C@@H]3COP(=O)(O)OP(=O)(O)OP(=O)(O)O)c(=O)oc2c1 [deac-aminoATP, 3′-(7-diethylaminocoumarin-3-carbonylamino)-3′-deoxyadenosine-5′-triphosphate]","stopped-flow fluorescence, quench-flow HPLC, Pi release, single turnover",PcrA [2],"After mixing excess PcrA·dT20 with deac-aminoATP, there was a biphasic increase in fluorescence"
"RecD2 (Deinococcus radiodurans R1 = ATCC 13939 = DSM 20539) (protein, N-terminal truncation lacking the first 150 amino acids; recombinant; monomer) SQQGLERRLLAGLQGLGLTINQAQRAVKHFGADALDRLEKDLFTLTEVEGIGFLTADKLWQARGGALDDPRRLTAAAVYALQLAGTQAGHSFLPRSRAEKGVVHYTRVTPGQARLAVETAVELGRLSEDDSPLFAAEAAATGEGRIYLPHVLRAEKKLASLIRTLLATPPADGAGNDDWAVPKKARKGLSEEQASVLDQLAGHRLVVLTGGPGTGKSTTTKAVADLAESLGLEVGLCAPTGKAARRLGEVTGRTASTVHRLLGYGPQGFRHNHLEPAPYDLLIVDEVSMMGDALMLSLLAAVPPGARVLLVGDTDQLPPVDAGLPLLALAQAAPTIKLTQVYRQAAKNPIIQAAHGLLHGEAPAWGDKRLNLTEIEPDGGARRVALMVRELGGPGAVQVLTPMRKGPLGMDHLNYHLQALFNPGEGGVRIAEGEARPGDTVVQTKNDYNNEIFNGTLGMVLKAEGARLTVDFDGNVVELTGAELFNLQLGYALTVHRAQGSEWGTVLGVLHEAHMPMLSRNLVYTALTRARDRFFSAGSASAWQIAAARQREARNTALLERIRAH",Km,[3],12.1 ± 1.7 µM
same,kcat,[3],40.2 ± 2.4 s⁻¹
same,Km,[4],30.3 ± 1.5 µM
same,kcat,[4],86.9 ± 1.5 s⁻¹

# Source: PMC3757182, “ATPase Mechanism of the 5′-3′ DNA Helicase, RecD2” (The Journal of Biological Chemistry, 2013)
